Measurements as given in patent US5827666A, “Synthetic multiple tandem repeat mucin and mucin-like peptides, and uses thereof” (priority 1994, dated 1998).

Experiment: circular dichroism at 25-90° C.
Type: physicochemical
Settings: 0.01M phosphate buffer pH 7.2

For “TITPPQAMGPNLVLPDQKPPSRQSQTGSKVATQRPQTNESAPRSVAPTTVGPKRIGTGDR (TITPPQAMGPNLVLPDQKPPSRQSQTGSKVATQRPQTNESAPRSVAPTTVGPKRIGTGDR) [PRN60, 60 amino acid proline-rich domain of feline leukemia virus gp-70]”, the “decrease of CD intensity at 198 nm at 90° C. as compared to 25° C.” value was 29%.
